Test results taken from paper PMC7367873, “Dissecting the sequence determinants for dephosphorylation by the catalytic subunits of phosphatases PP1 and PP2A” (Nature Communications, 2020).

B1: PRPF6 (protein, UniProt O94906 1-941, looked up)
Pre-mRNA-processing factor 6: MNKKKKPFLGMPAPLGYVPGLGRGATGFTTRSDIGPARDANDPVDDRHAPPGKRTVGDQMKKNQAADDDDEDLNDTNYDEFNGYAGSLFSSGPYEKDDEEADAIYAALDKRMDERRKERREQREKEEIEKYRMERPKIQQQFSDLKRKLAEVTEEEWLSIPEVGDARNKRQRNPRYEKLTPVPDSFFAKHLQTGENHTSVDPRQTQFGGLNTPYPGGLNTPYPGGMTPGLMTPGTGELDMRKIGQARNTLMDMRLSQVSDSVSGQTVVDPKGYLTDLNSMIPTHGGDINDIKKARLLLKSVRETNPHHPPAWIASARLEEVTGKLQVARNLIMKGTEMCPKSEDVWLEAARLQPGDTAKAVVAQAVRHLPQSVRIYIRAAELETDIRAKKRVLRKALEHVPNSVRLWKAAVELEEPEDARIMLSRAVECCPTSVELWLALARLETYENARKVLNKARENIPTDRHIWITAAKLEEANGNTQMVEKIIDRAITSLRANGVEINREQWIQDAEECDRAGSVATCQAVMRAVIGIGIEEEDRKHTWMEDADSCVAHNALECARAIYAYALQVFPSKKSVWLRAAYFEKNHGTRESLEALLQRAVAHCPKAEVLWLMGAKSKWLAGDVPAARSILALAFQANPNSEEIWLAAVKLESENDEYERARRLLAKARSSAPTARVFMKSVKLEWVQDNIRAAQDLCEEALRHYEDFPKLWMMKGQIEEQKEMMEKAREAYNQGLKKCPHSTPLWLLLSRLEEKIGQLTRARAILEKSRLKNPKNPGLWLESVRLEYRAGLKNIANTLMAKALQECPNSGILWSEAIFLEARPQRRTKSVDALKKCEHDPHVLLAVAKLFWSQRKITKAREWFHRTVKIDSDLGDAWAFFYKFELQHGTEEQQEEVRKRCESAEPRHGELWCAVSKDIANWQKKIGDILRLVAGRIKNTF
B2: ADAR (protein, UniProt P55265 1-1226, looked up)
Double-stranded RNA-specific …: MNPRQGYSLSGYYTHPFQGYEHRQLRYQQPGPGSSPSSFLLKQIEFLKGQLPEAPVIGKQTPSLPPSLPGLRPRFPVLLASSTRGRQVDIRGVPRGVHLRSQGLQRGFQHPSPRGRSLPQRGVDCLSSHFQELSIYQDQEQRILKFLEELGEGKATTAHDLSGKLGTPKKEINRVLYSLAKKGKLQKEAGTPPLWKIAVSTQAWNQHSGVVRPDGHSQGAPNSDPSLEPEDRNSTSVSEDLLEPFIAVSAQAWNQHSGVVRPDSHSQGSPNSDPGLEPEDSNSTSALEDPLEFLDMAEIKEKICDYLFNVSDSSALNLAKNIGLTKARDINAVLIDMERQGDVYRQGTTPPIWHLTDKKRERMQIKRNTNSVPETAPAAIPETKRNAEFLTCNIPTSNASNNMVTTEKVENGQEPVIKLENRQEARPEPARLKPPVHYNGPSKAGYVDFENGQWATDDIPDDLNSIRAAPGEFRAIMEMPSFYSHGLPRCSPYKKLTECQLKNPISGLLEYAQFASQTCEFNMIEQSGPPHEPRFKFQVVINGREFPPAEAGSKKVAKQDAAMKAMTILLEEAKAKDSGKSEESSHYSTEKESEKTAESQTPTPSATSFFSGKSPVTTLLECMHKLGNSCEFRLLSKEGPAHEPKFQYCVAVGAQTFPSVSAPSKKVAKQMAAEEAMKALHGEATNSMASDNQPEGMISESLDNLESMMPNKVRKIGELVRYLNTNPVGGLLEYARSHGFAAEFKLVDQSGPPHEPKFVYQAKVGGRWFPAVCAHSKKQGKQEAADAALRVLIGENEKAERMGFTEVTPVTGASLRRTMLLLSRSPEAQPKTLPLTGSTFHDQIAMLSHRCFNTLTNSFQPSLLGRKILAAIIMKKDSEDMGVVVSLGTGNRCVKGDSLSLKGETVNDCHAEIISRRGFIRFLYSELMKYNSQTAKDSIFEPAKGGEKLQIKKTVSFHLYISTAPCGDGALFDKSCSDRAMESTESRHYPVFENPKQGKLRTKVENGEGTIPVESSDIVPTWDGIRLGERLRTMSCSDKILRWNVLGLQGALLTHFLQPIYLKSVTLGYLFSQGHLTRAICCRVTRDGSAFEDGLRHPFIVNHPKVGRVSIYDSKRQSGKTKETSVNWCLADGYDLEILDGTRGTVDGPRNELSRVSKKNIFLLFKKLCSFRYRRDLLRLSYGEAKKAARDYETAKNYFKKGLKDMGYGNWISKPQEEKNFYLCPV
B3: LBR (protein, UniProt Q14739 1-615, looked up)
Delta(14)-sterol reductase LBR: MPSRKFADGEVVRGRWPGSSLYYEVEILSHDSTSQLYTVKYKDGTELELKENDIKPLTSFRQRKGGSTSSSPSRRRGSRSRSRSRSPGRPPKSARRSASASHQADIKEARREVEVKLTPLILKPFGNSISRYNGEPEHIERNDAPHKNTQEKFSLSQESSYIATQYSLRPRREEVKLKEIDSKEEKYVAKELAVRTFEVTPIRAKDLEFGGVPGVFLIMFGLPVFLFLLLLMCKQKDPSLLNFPPPLPALYELWETRVFGVYLLWFLIQVLFYLLPIGKVVEGTPLIDGRRLKYRLNGFYAFILTSAVIGTSLFQGVEFHYVYSHFLQFALAATVFCVVLSVYLYMRSLKAPRNDLSPASSGNAVYDFFIGRELNPRIGTFDLKYFCELRPGLIGWVVINLVMLLAEMKIQDRAVPSLAMILVNSFQLLYVVDALWNEEALLTTMDIIHDGFGFMLAFGDLVWVPFIYSFQAFYLVSHPNEVSWPMASLIIVLKLCGYVIFRGANSQKNAFRKNPSDPKLAHLKTIHTSTGKNLLVSGWWGFVRHPNYLGDLIMALAWSLPCGFNHILPYFYIIYFTMLLVHREARDEYHCKKKYGVAWEKYCQRVPYRIFPYIY
B4: MAGED2 (protein, UniProt Q9UNF1 2-606, looked up)
Melanoma-associated antigen D2: SDTSESGAGLTRFQAEASEKDSSSMMQTLLTVTQNVEVPETPKASKALEVSEDVKVSKASGVSKATEVSKTPEAREAPATQASSTTQLTDTQVLAAENKSLAADTKKQNADPQAVTMPATETKKVSHVADTKVNTKAQETEAAPSQAPADEPEPESAAAQSQENQDTRPKVKAKKARKVKHLDGEEDGSSDQSQASGTTGGRRVSKALMASMARRASRGPIAFWARRASRTRLAAWARRALLSLRSPKARRGKARRRAAKLQSSQEPEAPPPRDVALLQGRANDLVKYLLAKDQTKIPIKRSDMLKDIIKEYTDVYPEIIERAGYSLEKVFGIQLKEIDKNDHLYILLSTLEPTDAGILGTTKDSPKLGLLMVLLSIIFMNGNRSSEAVIWEVLRKLGLRPGIHHSLFGDVKKLITDEFVKQKYLDYARVPNSNPPEYEFFWGLRSYYETSKMKVLKFACKVQKKDPKEWAAQYREAMEADLKAAAEAAAEAKARAEIRARMGIGLGSENAAGPCNWDEADIGPWAKARIQAGAEAKAKAQESGSASTGASTSTNNSASASASTSGGFSAGASLTATLTFGLFAGLGGAGASTSGSSGACGFSYK
B5: CLPTM1L (protein, UniProt Q96KA5 1-538, looked up)
Lipid scramblase CLPTM1L: MWSGRSSFTSLVVGVFVVYVVHTCWVMYGIVYTRPCSGDANCIQPYLARRPKLQLSVYTTTRSHLGAENNIDLVLNVEDFDVESKFERTVNVSVPKKTRNNGTLYAYIFLHHAGVLPWHDGKQVHLVSPLTTYMVPKPEEINLLTGESDTQQIEAEKKPTSALDEPVSHWRPRLALNVMADNFVFDGSSLPADVHRYMKMIQLGKTVHYLPILFIDQLSNRVKDLMVINRSTTELPLTVSYDKVSLGRLRFWIHMQDAVYSLQQFGFSEKDADEVKGIFVDTNLYFLALTFFVAAFHLLFDFLAFKNDISFWKKKKSMIGMSTKAVLWRCFSTVVIFLFLLDEQTSLLVLVPAGVGAAIELWKVKKALKMTIFWRGLMPEFQFGTYSESERKTEEYDTQAMKYLSYLLYPLCVGGAVYSLLNIKYKSWYSWLINSFVNGVYAFGFLFMLPQLFVNYKLKSVAHLPWKAFTYKAFNTFIDDVFAFIITMPTSHRLACFRDDVVFLVYLYQRWLYPVDKRRVNEFGESYEEKATRAPHTD
B6: TRIM26 (protein, UniProt Q12899 1-539, looked up)
Tripartite motif-containing …: MATSAPLRSLEEEVTCSICLDYLRDPVTIDCGHVFCRSCTTDVRPISGSRPVCPLCKKPFKKENIRPVWQLASLVENIERLKVDKGRQPGEVTREQQDAKLCERHREKLHYYCEDDGKLLCVMCRESREHRPHTAVLMEKAAQPHREKILNHLSTLRRDRDKIQGFQAKGEADILAALKKLQDQRQYIVAEFEQGHQFLREREEHLLEQLAKLEQELTEGREKFKSRGVGELARLALVISELEGKAQQPAAELMQDTRDFLNRYPRKKFWVGKPIARVVKKKTGEFSDKLLSLQRGLREFQGKLLRDLEYKTVSVTLDPQSASGYLQLSEDWKCVTYTSLYKSAYLHPQQFDCEPGVLGSKGFTWGKVYWEVEVEREGWSEDEEEGDEEEEGEEEEEEEEAGYGDGYDDWETDEDEESLGDEEEEEEEEEEEVLESCMVGVARDSVKRKGDLSLRPEDGVWALRLSSSGIWANTSPEAELFPALRPRRVGIALDYEGGTVTFTNAESQELIYTFTATFTRRLVPFLWLKWPGTRLLLRP
B7: DDX28 (protein, UniProt Q9NUL7 1-540, looked up)
Probable ATP-dependent RNA …: MALTRPVRLFSLVTRLLLAPRRGLTVRSPDEPLPVVRIPVALQRQLEQRQSRRRNLPRPVLVRPGPLLVSARRPELNQPARLTLGRWERAPLASQGWKSRRARRDHFSIERAQQEAPAVRKLSSKGSFADLGLEPRVLHALQEAAPEVVQPTTVQSSTIPSLLRGRHVVCAAETGSGKTLSYLLPLLQRLLGQPSLDSLPIPAPRGLVLVPSRELAQQVRAVAQPLGRSLGLLVRDLEGGHGMRRIRLQLSRQPSADVLVATPGALWKALKSRLISLEQLSFLVLDEADTLLDESFLELVDYILEKSHIAEGPADLEDPFNPKAQLVLVGATFPEGVGQLLNKVASPDAVTTITSSKLHCIMPHVKQTFLRLKGADKVAELVHILKHRDRAERTGPSGTVLVFCNSSSTVNWLGYILDDHKIQHLRLQGQMPALMRVGIFQSFQKSSRDILLCTDIASRGLDSTGVELVVNYDFPPTLQDYIHRAGRVGRVGSEVPGTVISFVTHPWDVSLVQKIELAARRRRSLPGLASSVKEPLPQAT

Legend:
[1] = system: GFP-14-3-3β and its binding proteins; experiment: GFP-14-3-3β co-IP with LC-MS/MS label-free quantification, untreated versus PP1c-treated; design: species or system human; settings: pairwise comparison PP1 vs untreated
GFP-14-3-3β = GFP-14-3-3β co-IP with LC-MS/MS, untreated GFP-14-3-3β versus GFP control (14-3-3 interactome); assay type: binding, human; settings: pairwise comparison untreated vs GFP
[2] = log2 difference, label-free quantification, 3 replicates each

Molecule	Difference (log2), PP1 vs untreated [1] [log2]	Difference (log2), untreated vs GFP (GFP-14-3-3β) [log2]	Difference (log2), PP1 vs untreated [1, 2]	Difference (log2), untreated vs GFP (GFP-14-3-3β; [2])
B1	0.1336	1.324	–	–
B2	0.1214	1.541	–	–
B3	0.1636	2.137	–	–
B4	0.1347	0.4555	–	–
B5	0.154	0.3996	–	–
B6	–	–	2.003	-0.363
B7	0.1504	0.1408	–	–
